Assay [1] has as its target human CTLA-4Fc mutant protein M11 (human). As to the kind of experiment: ELISA on coated target; binder 10 ng/ml. For orientation: In an ELISA, binding on a coated surface is turned into a signal by an enzyme label.
Assay [2] addresses mouse CTLA4-Fc (mouse) (UniProt P09793). As to the kind of experiment: ELISA on coated target; binder 10 ng/ml.
For assay [3], the target named is human CTLA-4Fc mutant protein M11 (human). As to the kind of experiment: ELISA on coated target; binder 100 ng/ml.
human CTLA-4Fc mutant protein M11 (human), sequence (chain, as listed by the source mutant limits assumed): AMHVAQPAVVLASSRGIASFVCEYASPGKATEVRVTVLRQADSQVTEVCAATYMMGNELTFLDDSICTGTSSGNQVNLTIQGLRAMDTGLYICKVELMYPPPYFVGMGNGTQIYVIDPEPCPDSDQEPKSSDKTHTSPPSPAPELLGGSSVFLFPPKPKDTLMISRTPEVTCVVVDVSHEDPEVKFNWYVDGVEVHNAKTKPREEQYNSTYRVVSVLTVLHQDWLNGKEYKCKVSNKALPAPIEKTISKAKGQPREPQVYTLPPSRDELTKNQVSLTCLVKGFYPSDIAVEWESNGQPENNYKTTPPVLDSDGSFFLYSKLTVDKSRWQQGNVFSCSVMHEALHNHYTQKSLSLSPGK
Assay [4] has as its target mouse CTLA4-Fc (mouse) (UniProt P09793). Description: ELISA on coated target; binder 100 ng/ml.
In assay [5] the target is human CTLA-4Fc mutant protein M11 (human). Description: ELISA on coated target; binder 1000 ng/ml.
Assay [6] concerns the target mouse CTLA4-Fc (mouse) (UniProt P09793). As to the kind of experiment: ELISA on coated target; binder 1000 ng/ml.
Assay [7] addresses human CTLA-4Fc mutant protein M11 (human). Description: ELISA on coated target; binder 0 (background).
The target of assay [8] is mouse CTLA4-Fc (mouse) (UniProt P09793). Description: ELISA on coated target; binder 0 (background).
Assay [9] deals with mouse CTLA4-Fc fusion protein (mouse) (UniProt P09793). As to the kind of experiment: ELISA, binding to plate-bound mouse CTLA4-Fc.

“And” between values parts separate entries of the source, which are not always exact repeats. Identical values can stand only once.

B1: chimeric L3D10 antibody (antibody, V domains shown)
VH: QVQLKESGPGLVAPSQSLSITCTVSGFSLTSYGLSWVRQPPGKGLEWLGVIWYDGNTNFHSALISRLTISKDNSKSQVFLELNSLQTDDTATYYCAKTEGHYYGSNYGYYALDYWGQGTSVTVSS
VL: DIQMTQSPASLSVSVGETVTITCRASENIYSNLAWYQQKQGKSPQLLVYAATNLADGVPSRFSGSGSGTQYSLKINSLQSEDFGTYFCQHLWGTPYTFGGGTKLEIKR
modifications: biotinylated (sites not given)
On to B1, for which the OD450 is 0.19 OD and 0.194 OD in [1]; 0.201 OD and 0.18 OD in the assay with mouse CTLA4-Fc (mouse) [2]; 0.752 OD and 0.746 OD in assay [3]; 0.303 OD and 0.314 OD with mouse CTLA4-Fc (mouse) [4]; 2.89 OD and 2.91 OD in assay [5]; 0.942 OD and 0.94 OD with mouse CTLA4-Fc (mouse) [6]. The OD450 in [7] is 0.171 OD and 0.155 OD; with mouse CTLA4-Fc (mouse) [8] it was 0.19 OD and 0.189 OD.

B2: anti-mouse CTLA4 mAb 9H10 (antibody, from another filing)
scFv: YPYDVPDYAGAQPARSDIVMTQSPSSLAVSVGEKVTISCKSSQSLLYGSSHYLAWYQQKVGQSPKLLIYWASTRHTGIPDRFIGSGSGTDFTLSLSSVQAEDMADYFCQQYFSTPWTFGAGTRVEIKSGSGGGSGGGSGGGSQVQLLQSESELVKPGASVKLSCKTSGYTFTDYYIHWVKQKPGQGLEWIGLINPNNDGTNYNQKFQGKATLTADKSSSTAYMELNSLTFDDSVIYFCARASSRLRMARTTSDYYAMDYWGQGIQVTVSSVDSSGSGGCKPCICTVPEVSSVFIFPPKPKDVLTITLTPKVTCVVVDISKDDPEVQFSWFVDDVEVHTAQTQPREEQFNSTFRSVSELPIMHQDWLNGKEFKCRVNSAAFPAPIEKTISKTKGRPKAPQVYTIPPPKEQMAKDKVSLTCMITDFFPEDITVEWQWNGQPAENYKNTQPIMDTDGSYFVYSKLNVQKSNWEAGNTFTCSVLHEGLHNHHTEKSLSHSPGK
In general, EC50 (read off the curve) refers to the concentration giving half of the maximal effect. As to B2, the EC50 (read off the curve) in [9] came out at 1 µg/mL.

Source of the values: patent publication US20190127468A1.
